Laboratory results taken from PMC3122231.
Read-outs that look alike come from different tables or passages of the source.

Columns and labels:
[1] = biological target: F-actin prepared from rabbit skeletal muscle (rabbit) (UniProt P68135); test: co-sedimentation
[2] = biological target: F-actin prepared from rabbit skeletal muscle (rabbit) (UniProt P68135); test: co-sedimentation; remark: listed apart in the source
[3] = biological target: rhodamine-phalloidin-labeled, 10% biotinylated filamentous actin (UniProt P68135); test: optical trapping

| Substance | Kd [1] [nM] | Kd [2] [nM] | fraction bound in the first sedimentation at 20 μM actin [2] [%] | koff [3] [s⁻¹] |
| --- | --- | --- | --- | --- |
| Drosophila myosin-18 M-PDZ (minimal motor domain construct with the N-terminal PDZ domain) (domain or fragment) | 1500 | 2600 | 54.9 | 94.2 |
| Drosophila myosin-18 M-ΔPDZ (minimal motor domain construct without the PDZ domain) (domain or fragment) | 1000 | 1000 |  | 57 |
